Data published in patent publication US20240059760A1 (UNIVERSITY OF CHICAGO, published 2024).
Where two headings read alike, the source gives them in different places.

Assays:
[1] = molecular target: T1, Receptor Binding Domain (RBD) of SARS-CoV-2 S protein (SARS-CoV-2, UniProt P0DTC2 319-541)
[2] = molecular target: T1, Receptor Binding Domain (RBD) of …; remark: listed apart in the source

B1: sRBD7 Fab (Fab, V domains shown)
VH: EVQLVESGGGLVQPGGSLRLSCAASGFNVYSSYIHWVRQAPGKGLEWVAYISPYYGSTYYADSVKGRFTISADTSKNTAYLQMNSLRAEDTAVYYCARYWSYGGMDYWGQGTLVTVSS
VL: DIQMTQSPSSLSASVGDRVTITCRASQSVSSAVAWYQQKPGKAPKLLIYSASSLYSGVPSRFSGSRSGTDFTLTISSLQPEDFATYYCQQYYYGALITFGQGTKVEIKR
Q: What does the source list for B1?
A: Kd [1]: 2.55 nM; koff [1]: 0.00029 s⁻¹; kon [1]: 150000 M⁻¹ s⁻¹

B2: sRBD1.15 Fab (Fab, V domains shown)
VH: EVQLVESGGGLVQPGGSLRLSCAASGFNFHNSYIHWVRQAPGKGLEWVASISSYSGYTYYADSVKGRFTISADTSKNTAYLQMNSLRAEDTAVYYCARSYQGQEALDYWGQGTLVTVSS
VL: DIQMTQSPSSLSASVGDRVTITCRASQSVSSAVAWYQQKPGKAPKLLIYSASSLYSGVPSRFSGSRSGTDFTLTISSLQPEDFATYYCQQYLYFSLVTFGQGTKVEIKR
Q: B2 was tested. Which Kd [2] did it give?
A: The Kd was 0.1 nM.

Q: What about the koff [2] of the same binder?
A: The koff was 0.00011 s⁻¹.

Q: What about the kon [2] of the same binder?
A: The kon was 1e+06 M⁻¹ s⁻¹.
